Laboratory results taken from patent US20100068151A1 (published 2010).

Biological target: T1, VEGFR-2 expressed on PAE/KDR cells (human, UniProt P35968 20-1356)
T1 construct: whole, on cells
Experiment: cell-binding assay, displacement of 125I-VEGF165 from PAE/KDR cells

T1 sequence (P35968 20-1356): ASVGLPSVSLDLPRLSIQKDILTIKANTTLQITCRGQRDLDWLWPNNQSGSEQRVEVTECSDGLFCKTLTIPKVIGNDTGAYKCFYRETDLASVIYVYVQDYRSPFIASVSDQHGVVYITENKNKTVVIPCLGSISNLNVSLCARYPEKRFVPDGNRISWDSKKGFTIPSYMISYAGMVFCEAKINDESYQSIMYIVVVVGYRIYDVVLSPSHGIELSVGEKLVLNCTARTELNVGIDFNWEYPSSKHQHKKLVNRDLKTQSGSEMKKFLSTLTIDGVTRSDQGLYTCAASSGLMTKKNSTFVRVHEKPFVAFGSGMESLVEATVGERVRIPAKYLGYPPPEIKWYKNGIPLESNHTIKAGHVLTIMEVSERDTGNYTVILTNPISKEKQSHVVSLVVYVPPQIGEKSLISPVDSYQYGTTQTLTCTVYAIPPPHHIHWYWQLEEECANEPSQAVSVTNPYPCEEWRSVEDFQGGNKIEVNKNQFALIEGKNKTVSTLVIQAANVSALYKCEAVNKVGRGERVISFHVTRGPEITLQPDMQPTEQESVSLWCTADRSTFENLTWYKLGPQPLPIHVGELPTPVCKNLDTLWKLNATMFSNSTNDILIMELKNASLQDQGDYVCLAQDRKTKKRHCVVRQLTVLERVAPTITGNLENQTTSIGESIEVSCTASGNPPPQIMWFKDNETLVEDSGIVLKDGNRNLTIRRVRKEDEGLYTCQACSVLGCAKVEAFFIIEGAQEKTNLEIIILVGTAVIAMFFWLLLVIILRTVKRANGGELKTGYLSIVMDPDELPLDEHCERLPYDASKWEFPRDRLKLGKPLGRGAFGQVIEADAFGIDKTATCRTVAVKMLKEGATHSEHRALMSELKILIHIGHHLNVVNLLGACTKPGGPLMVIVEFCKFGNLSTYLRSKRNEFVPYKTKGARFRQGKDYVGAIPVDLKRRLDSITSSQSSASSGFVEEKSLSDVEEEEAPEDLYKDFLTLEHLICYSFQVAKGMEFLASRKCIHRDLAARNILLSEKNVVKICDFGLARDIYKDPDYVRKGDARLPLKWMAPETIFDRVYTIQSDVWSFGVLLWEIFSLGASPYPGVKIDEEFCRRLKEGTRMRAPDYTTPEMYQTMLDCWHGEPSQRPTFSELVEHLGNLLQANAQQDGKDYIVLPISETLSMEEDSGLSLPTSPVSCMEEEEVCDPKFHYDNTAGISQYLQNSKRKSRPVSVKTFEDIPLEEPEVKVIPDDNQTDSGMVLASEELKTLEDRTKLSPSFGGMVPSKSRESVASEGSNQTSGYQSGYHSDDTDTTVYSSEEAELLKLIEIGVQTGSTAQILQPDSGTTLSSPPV

B1: VEGF121/rGel fusion toxin (other)
chain: APMAEGGGQNHHEVVKFMDVYQRSYCHPIETLVDIFQEYPDEIEYIFKPSCVPLMRCGGCCNDEGLECVPTEESNITMQIMRIKPHQGQHIGEMSFLQHNKCECRPKKDRARQEKCDKPRRGGGGSGLDTVSFSTKGATYITYVNFLNELRVKLKPEGNSHGIPLLRKKCDDPGKCFVLVALSNDNGQLAEIAIDVTSVYVVGYQVRNRSYFFKDAPDAAYEGLFKNTIKTRLHFGGSYPSLEGEKAYRETTDLGIEPLRIGIKKLDENAIDNYKPTEIASSLLVVIQMVSEAARFTFIENQIRNNFQQRIRPANNTISLENKWGKLSFQIRTSGANGMFSEAVELERANGKKYYVTAVDQVKPKIALLKFVDKDPK
notes: Described as an 84-kDa fusion protein made as in Veenendaal et al., 2002; also called vasculature-targeting fusion protein
  IC50: 24.5 nM

B2: DOTA-VEGF121/rGel conjugate (other)
chain: APMAEGGGQNHHEVVKFMDVYQRSYCHPIETLVDIFQEYPDEIEYIFKPSCVPLMRCGGCCNDEGLECVPTEESNITMQIMRIKPHQGQHIGEMSFLQHNKCECRPKKDRARQEKCDKPRRGGGGSGLDTVSFSTKGATYITYVNFLNELRVKLKPEGNSHGIPLLRKKCDDPGKCFVLVALSNDNGQLAEIAIDVTSVYVVGYQVRNRSYFFKDAPDAAYEGLFKNTIKTRLHFGGSYPSLEGEKAYRETTDLGIEPLRIGIKKLDENAIDNYKPTEIASSLLVVIQMVSEAARFTFIENQIRNNFQQRIRPANNTISLENKWGKLSFQIRTSGANGMFSEAVELERANGKKYYVTAVDQVKPKIALLKFVDKDPK
modifications: DOTA chelator conjugated, 3.3±0.1 DOTA molecules per VEGF121/rGel molecule; sites not stated
  IC50: 40.6 nM
